The values that follow come from patent publication US20190248900A1 (Y BIOLOGICS, published 2019).

Positions count from the first letter of the chain named.

T1: ITGA6-Fc
T1 construct: Fc fusion
T1 sequence (P23229 whole entry, species assumed, looked up): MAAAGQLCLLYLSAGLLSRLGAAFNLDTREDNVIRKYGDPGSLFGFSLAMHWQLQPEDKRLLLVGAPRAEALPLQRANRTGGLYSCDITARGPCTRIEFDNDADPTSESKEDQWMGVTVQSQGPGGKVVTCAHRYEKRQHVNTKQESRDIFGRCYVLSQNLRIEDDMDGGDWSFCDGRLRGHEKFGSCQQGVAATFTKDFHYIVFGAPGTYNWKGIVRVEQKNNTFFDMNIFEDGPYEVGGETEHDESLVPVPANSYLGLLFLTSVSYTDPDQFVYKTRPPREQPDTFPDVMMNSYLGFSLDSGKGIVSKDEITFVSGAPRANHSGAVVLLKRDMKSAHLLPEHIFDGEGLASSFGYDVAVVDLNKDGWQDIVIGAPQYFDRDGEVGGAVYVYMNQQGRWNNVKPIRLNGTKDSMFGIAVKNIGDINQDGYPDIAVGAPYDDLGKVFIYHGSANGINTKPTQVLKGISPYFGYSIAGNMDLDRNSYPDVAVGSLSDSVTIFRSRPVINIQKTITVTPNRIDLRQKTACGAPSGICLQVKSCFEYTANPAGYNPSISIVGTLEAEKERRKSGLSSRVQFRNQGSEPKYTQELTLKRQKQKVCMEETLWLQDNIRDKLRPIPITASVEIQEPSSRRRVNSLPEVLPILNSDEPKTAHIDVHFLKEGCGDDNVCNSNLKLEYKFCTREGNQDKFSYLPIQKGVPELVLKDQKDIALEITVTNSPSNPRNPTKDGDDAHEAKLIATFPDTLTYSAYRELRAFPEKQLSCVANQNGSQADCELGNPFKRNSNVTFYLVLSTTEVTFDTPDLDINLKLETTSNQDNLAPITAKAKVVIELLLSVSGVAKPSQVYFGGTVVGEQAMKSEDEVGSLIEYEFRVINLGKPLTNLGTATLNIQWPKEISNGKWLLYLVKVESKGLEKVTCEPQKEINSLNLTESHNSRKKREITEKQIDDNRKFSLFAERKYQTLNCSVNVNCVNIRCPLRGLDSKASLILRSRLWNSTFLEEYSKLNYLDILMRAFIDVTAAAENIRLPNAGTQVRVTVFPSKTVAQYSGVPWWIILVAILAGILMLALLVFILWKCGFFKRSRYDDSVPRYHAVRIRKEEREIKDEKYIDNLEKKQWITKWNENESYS

B1: PD1-41C9 (antibody, V domains shown)
VH: QMQLVESGGGVVQPGRSLRLSCAASGFTFSSYAMHWVRQAPGKGLEWVAVISYDGSNKYYADSVKGRFTISRDNSKNTLYLQMNRLRSEDTAVYYCTTTTFDSWGQGTLITVSS
VL: DIVMTQTPLSLPVTPGEAASISCRSSQSLLDSEDGNTYLDWYLQKPGQSPQLLIYTLSHRASGVPDRFSGSGSGTDFTLKISRVAAEDVGLYYCLQRMGFPYTFGQGTKLDIK
notes: scFv-phage in the screening ELISA; whole IgG in the other assays
B2: PD1-49A2 (antibody, V domains shown)
VH: B1 VH with M2V, S75P, R85S, S88A, Q106R, I110V
VL: B1 VL with T7S, A18P, L30F, E33D, A85E, L91I, L110V, D111E
notes: scFv-phage in the screening ELISA; whole IgG in the other assays; also called Parent 49A2
B3: PD1-52E8 (antibody, V domains shown)
VH: QVQLVQSGGNLVQPGRSLRLSCAASGFTFDDYAMHWVRQAPGKGLEWVSGISWNSGTPGYADSVQGRFTISRDNAKNSLYLQMNSLRAEDTAVYYCARGHNYLDSSYYDYWGQGTLVTVSS
VL: SYELTQPLSLSVAPGQTARITCSGDALSKEYSYWYQQKPGQAPVLVMYKDSERPSGIPERFSGSSSGTTVTLTISGVQAEDEADYYCQSVDSSDTSVVFGGGTKLTVL
notes: as for B1
B4: PD1-45D6 (antibody, V domains shown)
VH: QVQLVESGGGVVQPGRSLRLSCAASGFTFSSYAMHWVRQVPGKGLEWVAVISYDGNDKYYADSVKGRFTISRDNSKNTLYLQMNSLRAEDTAVYYCVPTTFEYWGQGSQVTVSS
VL: DIVMTQTPLSLPVTPGEAASISCRSSQSLLDSDDGKTYLDWYLQKPGQSPQLLIYTLSYRASGVPDRFSGSGSGTEFNLRISRVEAEDVGIYYCMQRVEFPFTFGQGTKLDIK
notes: as for B1

The target in the first assay is T2, M6.
T2 construct: also called PD1 mutant M6
As to the kind of experiment: ELISA, 1 ug/ml. For orientation: In an ELISA, binding on a coated surface is turned into a signal by an enzyme label.
Consider B1, for which the OD490 worked out at 3.6.

B2: the OD490 came out at 3.9.

In turn, B3 gave an OD490 of 3.4.

The molecule B4 displayed an OD490 of 3.9.

The target in the next assay is T3, M8.
T3 construct: also called PD1 mutant M8
As to the kind of experiment: ELISA, 1 ug/ml.
The molecule B1 returned an OD490 of 2.5.

In turn, B2 yielded an OD490 of 3.

As for B3, the OD490 was 0.6.

With B4, the OD490 was found to be 3.8.

The target in another assay is T4, M2-2.
T4 construct: also called PD1 mutant M2-2
As to the kind of experiment: ELISA, 1 ug/ml.
For the molecule B1, the OD490 is 3.2.

B2 showed an OD490 of 3.8.

Molecule B3 gave an OD490 of 3.4.

Molecule B4 came in with an OD490 of 3.8.

Another assay has as its target T5, M4.
T5 construct: also called PD1 mutant M4
As to the kind of experiment: ELISA, 1 ug/ml.
Molecule B1 displayed an OD490 of 3.2.

For the molecule B2, the OD490 was 3.9.

In turn, B3 returned an OD490 of 3.7.

With B4, the OD490 turned out to be 3.9.

A further assay addresses T6, M5.
T6 construct: also called PD1 mutant M5
As to the kind of experiment: ELISA, 1 ug/ml.
B1 showed an OD490 of 2.3.

B2: the OD490 worked out at 1.2.

B3 had an OD490 of 0.5.

Take B4: the OD490 amounted to 3.6.

The next assay has as its target T7, M11.
T7 construct: also called PD1 mutant M11
As to the kind of experiment: ELISA, 1 ug/ml.
As for B1, the OD490 was 0.9.

The molecule B2 gave an OD490 of 0.4.

Turning to B3, the OD490 was determined as 0.2.

In turn, B4 gave an OD490 of 0.7.

For another assay, the target named is T8, M9.
T8 construct: also called PD1 mutant M9
As to the kind of experiment: ELISA, 1 ug/ml.
B1 had an OD490 of 3.3.

Consider B2, for which the OD490 amounted to 3.7.

With B3, the OD490 turned out to be 2.4.

For B4, the OD490 is 3.8.

For another assay, the target named is T9, M13.
T9 construct: also called PD1 mutant M13
As to the kind of experiment: ELISA, 1 ug/ml.
On to B1, for which the OD490 is 3.6.

B2 gave an OD490 of 3.9.

The molecule B3 gave an OD490 of 3.9.

Turning to B4, the OD490 is 4.

The next assay concerns the target T10, M1.
T10 construct: also called PD1 mutant M1
As to the kind of experiment: ELISA, 1 ug/ml.
B1: the OD490 came out at 3.2.

Turning to B2, the OD490 came to 3.

In the case of B3, the OD490 came to 1.4.

B4 gave an OD490 of 4.

The next assay has as its target T1, ITGA6-Fc. As to the kind of experiment: ELISA, 1 ug/ml.
Molecule B1 returned an OD490 of 0.5.

In the case of B2, the OD490 is 0.2.

In the case of B3, the OD490 stood at 0.1.

Molecule B4 came in with an OD490 of 0.5.

The next assay deals with T11, M2-1.
T11 construct: also called PD1 mutant M2-1
As to the kind of experiment: ELISA, 1 ug/ml.
B1 registered an OD490 of 3.4.

In turn, B2 had an OD490 of 3.7.

For the molecule B3, the OD490 is 2.9.

Consider B4, for which the OD490 was found to be 3.9.

The target of the next assay is T12, M10.
T12 construct: also called PD1 mutant M10
As to the kind of experiment: ELISA, 1 ug/ml.
Regarding B1, the OD490 worked out at 3.4.

Consider B2, for which the OD490 stood at 2.6.

Consider B3, for which the OD490 was found to be 1.

Turning to B4, the OD490 turned out to be 3.9.

The target in the next assay is T13, PD1-his (Catalog Number 10377-H08H, Sino Biological Inc.) (UniProt Q15116 25-167).
T13 construct: bought protein; not shown: His tag
T13 sequence (Q15116 25-167 limits assumed): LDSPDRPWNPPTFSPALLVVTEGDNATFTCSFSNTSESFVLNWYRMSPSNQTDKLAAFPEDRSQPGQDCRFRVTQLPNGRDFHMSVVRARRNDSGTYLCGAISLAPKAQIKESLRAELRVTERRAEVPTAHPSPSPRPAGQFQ
As to the kind of experiment: ELISA, 1 ug/ml.
Consider B1, for which the OD490 was 3.2.

For B2, the OD490 was determined as 3.6.

Turning to B3, the OD490 was determined as 0.4.

B4 gave an OD490 of 3.8.

A further assay concerns the target T14, M1-2.
T14 construct: also called PD1 mutant M1-2
As to the kind of experiment: ELISA, 1 ug/ml.
Molecule B1 displayed an OD490 of 3.2.

For B2, the OD490 came out at 3.8.

In turn, B3 showed an OD490 of 3.6.

In turn, B4 returned an OD490 of 3.9.

Another assay has as its target T15, M7-1.
T15 construct: also called PD1 mutant M7-1
As to the kind of experiment: ELISA, 1 ug/ml.
Turning to B1, the OD490 turned out to be 1.2.

B2 gave an OD490 of 0.5.

Molecule B3 registered an OD490 of 1.1.

Consider B4, for which the OD490 turned out to be 1.3.

The target of the next assay is T16, M14.
T16 construct: also called PD1 mutant M14
As to the kind of experiment: ELISA, 1 ug/ml.
B1 returned an OD490 of 3.5.

The molecule B2 had an OD490 of 3.9.

B3 registered an OD490 of 2.6.

In the case of B4, the OD490 amounted to 3.9.

The target of another assay is T17, PD-1-His (S1352, Y-Biologics) (UniProt Q15116 25-170, limits assumed).
T17 construct: not shown: His tag
T17 sequence (Q15116 25-170 limits assumed): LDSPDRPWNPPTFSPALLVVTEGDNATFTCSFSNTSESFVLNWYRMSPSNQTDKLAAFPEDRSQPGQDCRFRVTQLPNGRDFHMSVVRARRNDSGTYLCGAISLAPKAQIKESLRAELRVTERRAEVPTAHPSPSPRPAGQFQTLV
As to the kind of experiment: competition ELISA: PD-L2-Fc coated, PD-1-His as binder, antibody as competitor. On the procedure: Human PD-1-Fc (S1420, Y-Biologics) or PD-L2-Fc (#10292-H02H, Sino) was added to wells of a 96-well immuno microplate (#439454, Thermo) and then washed three times with PBS containing 0.05% tween-20 (#P9416, Sigma-Aldrich), followed by allowing to stand in a cleaning solution containing 4% skim milk (#232120, Becton, Dickinson and Company) at room temperature for 1 hour to block non-specific binding. […] After the resulting product was subjected to the same washing method as above, the anti-Biotin-His antibody (#MA1-21315-BTIN, Thermo) diluted to 1:2000 was added to the well of the microplate, allowed to react at room temperature for 1 hour, streptavidin poly-HRP antibody (#21140, Pierce) diluted to 1:5000 was added to the well of microplate, reacted at room temperature for 1 hour and then washed in the same manner. 100 ul of a TMB substrate solution (#T0440, Sigma-Aldrich) was added to the reaction product, light was shielded, and the reaction product was allowed to stand at room temperature for 3 minutes, 50 μL of 2.5 M sulfuric acid (#S1478, Samchun) was added to stop the reaction, and absorbance was measured at 450 nm using a spectrophotometer (*GM3000, Glomax® Discover System Promega).
As a reminder, the IC50 is the concentration needed to halve the response being measured. Low values mean greater potency in that assay, high ones weaker potency in that assay. B2 gave an IC50 of 59.7 nM.

The molecule B4 had a 50% inhibitory concentration (IC50) of 49.6 nM.

In the next assay the target is T18, human PD-1 (NM_005018.2) over-expressed on cells (human, UniProt Q15116 25-288).
T18 construct: whole, on cells; also called human PD-1 over-expressed on the cell surface; Jurkat cell line highly expressing human PD-1
T18 sequence (Q15116 25-288): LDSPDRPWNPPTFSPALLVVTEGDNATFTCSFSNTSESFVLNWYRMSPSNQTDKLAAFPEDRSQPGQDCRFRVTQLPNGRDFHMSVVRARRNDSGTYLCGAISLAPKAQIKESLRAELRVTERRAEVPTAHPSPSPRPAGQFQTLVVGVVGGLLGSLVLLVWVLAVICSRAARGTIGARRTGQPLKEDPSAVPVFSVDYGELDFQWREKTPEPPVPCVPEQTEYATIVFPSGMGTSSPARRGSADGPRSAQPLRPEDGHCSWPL
As to the kind of experiment: flow cytometry on cells over-expressing human PD-1, fit of Geometric Mean. In general terms: A flow cytometer gives signals particle by particle.
The term Kd denotes the constant that tells how readily two partners part at equilibrium. A high value points to weaker binding. Turning to B2, the Bmax was determined as 3000 and the equilibrium dissociation constant (Kd) is 38.2 nM.

B4: the Bmax came to 1640 and the Kd turned out to be 2.7 nM.
